± gives the standard deviation.
Test: protein stability index of a GFP-peptide fusion (GPS, HEK-293T) (PSI 1-6); higher = more stable
Settings: c terminus: a fixed tail appended
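Note: 24-mer peptide tiles fused after GFP, lentivirally expressed, FACS-sorted into six equal bins by GFP/DsRed ratio, decoded by Illumina sequencing, PSI is the read-weighted mean bin number.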

Sequence	protein stability index (treatment: DMSO)	protein stability index (treatment: MLN4924 1 uM, 8 h)
VAQCLRDLVAMQWADAAGEAVPEG [ZSWIM9]	2.92 ± 0.33	3.06 ± 0.36
DSMPQDLSEALKEATKEVHTQAEN [HMOX1]	5.39 ± 0.26	5.51 ± 0.19
RISFCADDKTDKRIFTFICKDSES [GULP1]	3.52 ± 0.47	3.47 ± 0.96
AGLVHVKQCIVAHPVNPPYYIPLV [CRYL1]	2.46 ± 0.33	2.36 ± 0.54
MPLREGSSFQDLLGDALAGPPRAP [HES6]	3.86 ± 0.34	4.05 ± 0.4
EKAVANFDRTEWVQIRRLEAAGES [ZC2HC1C]	4.49 ± 0.12	4.48 ± 0.26
MSYSCCLPSLGCRTSCSSRPCVPP [KRT34]	2.22 ± 0.17	2.37 ± 0.4
ILVSVAAGVSLSTLEELLPPNTRV [PYCR3]	2.77 ± 0.49	2.62 ± 0.54
GASSREEPPEEPEQCPVIDSQAPA [SPDEF]	5.69 ± 0.17	5.52 ± 0.078
ALLQAMKDLDGMDADILGLKKSNS [FBF1]	2.83 ± 0.78	2.82 ± 0.29
QCSQRMLSFSDALLSIIATVMILP [TMEM175]	3.25 ± 0.4	3.33 ± 0.3
FVSAGAAAGVAAAFGAPIGGTLFS [CLCN6]	2.8 ± 0.48	2.46 ± 0.21
GKTWKQICDKHWTAKNSRVVCGMF [LOXL2]	2.06 ± 0.46	2.18 ± 0.46
VSVIQSIPIFNETGRFSFTLPYPV [HACD3]	2.91 ± 0.72	2.68 ± 0.76
WAFSCGTWLPSRAEWLLAVRSIQP [AASDHPPT]	2.65 ± 0.65	2.6 ± 0.64
EFIMPDSAVVGDVLVLTKPLGTQV [SEPHS2]	2.3 ± 0.31	2.54 ± 0.32
NRRLQLLEEENKERAKREMVMYSI [MFF]	3.96 ± 0.19	3.6 ± 0.13
LQLKQELAMLNAVTEDLRLKDWEH [SCARA5]	3.36 ± 0.046	3.34 ± 0.24
VLREDQIPRGFPTIDMGPQLKVVE [PTPRD]	3.898 ± 0.018	3.34 ± 1.1
GRGAFGEVRLVQKKDTGHIYAMKI [STK38L]	2.09 ± 0.25	2.43 ± 0.49
THFTFKDLHFKMFDVGGQRSERKK [GNAI1]	2.83 ± 0.33	2.93 ± 0.15
EEEEERWEWSPAGLQSYQQALLRI [SERTAD3]	3.46 ± 0.29	3.43 ± 0.17
DVHDDVRLLSDATVEKDESHAGKV [FAM50A]	5.52 ± 0.26	5.43 ± 0.23

Sequence	protein stability index (treatment: DMSO)	protein stability index (treatment: MLN4924 1 uM, 8 h)
FGDVSERLALRQRLKCRSFKWYLE [GALNT9]	2.29 ± 0.59	2.54 ± 0.37
SLFARAMQVLVTAISPGRFPEALD [ANKRD9]	3.04 ± 0.31	2.8 ± 0.54
AAIDNGLAFPLKHPDSWRAYPFYW [PI4K2A]	2.27 ± 0.18	2.26 ± 0.2
VNSQFTAAVFKETFKSLSHIDPDV [ALG2]	2.86 ± 0.47	3.05 ± 0.33
QLQVPTLRQQCAQVLRNNPDALSD [ELOA2]	4.24 ± 0.36	4.42 ± 0.13
TPVMEGYVEVKEGKTWKQICDKHW [LOXL2]	3.28 ± 0.32	3.51 ± 0.37
CERVVINVSGLRFETQMKTLAQFP [KCNA4]	2.55 ± 0.42	2.51 ± 0.77
PVLHPSEERAAPVLSCEAATQTER [FAM189A2]	5.47 ± 0.27	5.44 ± 0.13
CSSPSVVASLPLDQSDEGSSSQKE [MAGEA10]	5.36 ± 0.74	5.49 ± 0.1
ARQELLGDRPRWQRLLGEDKFQWL [ANKRD9]	2.66 ± 0.46	2.98 ± 0.31
NHSLETCETTLFALRMATWNQILD [PTGFR]	2.25 ± 0.52	2 ± 0.27
YEIEIQAEDGGAYLATAKVLITVE [PCDHGA10]	2.96 ± 0.39	2.89 ± 0.91
RVGQLQEALNERHSIINALKAKLQ [LRRC45]	2.45 ± 0.43	2.46 ± 0.3
SALERLETKLHLLRQEMVNLRATD [LURAP1L]	2.73 ± 0.22	2.79 ± 0.58
ERLKVMCEEALCSNLSVENVADTL [SPOPL]	3.84 ± 0.36	4.09 ± 0.39
WGGKAETERGLSRKHIIEGLKASL [KCNAB2]	2.26 ± 0.29	2.02 ± 0.21
LLPYFYIIYMAILLTHRCLRDEHR [DHCR7]	3.25 ± 0.52	3.05 ± 0.2
ERYQKIGDTKRATPIEVLCENFPE [CSNK1G3]	4.59 ± 0.11	4.44 ± 0.28
TSLLDLISIPITGDTLRTFSLVLV [DYNC2LI1]	2.76 ± 0.89	2.51 ± 0.57
SISEKLSSTNFAMKRDVQEGQARC [C8orf76]	4.41 ± 0.23	4.29 ± 0.22
EQASAFQEQEIDGKSLLLMTRNDV [SAMD13]	4.74 ± 0.12	4.78 ± 0.14
YQELNYRSVEEAPVYSVPQLLSAM [SCNN1D]	2.49 ± 0.34	2.69 ± 0.29
LGGRALMNCLPSNRTLWRLDLAGN [LRRC45]	2.5 ± 0.41	2.32 ± 0.28

Sequence	protein stability index (treatment: DMSO)	protein stability index (treatment: MLN4924 1 uM, 8 h)
FIVIDAMLERIKHEKTVDIYGHVT [PTPRD]	3.04 ± 1.2	2.5 ± 1.1
RPQLPQVLQHVRLPLLSPKFLVGT [KLHL20]	2.8 ± 0.12	2.58 ± 0.26
RVQKTSKELEDMNQKLFDLRGKFK [TNNI2]	3.94 ± 0.25	4.03 ± 0.3
LFILSTLVVDYIDEGRLVLEFSLL [SOAT1]	3.28 ± 0.57	2.88 ± 0.96
VDSFQIILDSLLFFYDCSNNPISE [TENT5C]	3.03 ± 0.14	3.14 ± 0.41
DYKDRSVFGVPLTVNVQRTGQPLP [DLC1]	3.62 ± 0.069	3.52 ± 0.17
ENILSFMSYDEISQLRLVCKRMDL [FBXO28]	2.32 ± 0.21	2.35 ± 0.28
ATDNYDIGFGVYFEWTDSPNTAVS [ACBD3]	2.21 ± 0.16	2.25 ± 0.48
NKYMVTDGAAYIGNFDWVGNDFTQ [PLD5]	2.87 ± 0.25	2.62 ± 0.3
QIEEVFISEEIQMSTKESDFLCLL [MIA2]	2.51 ± 0.42	2.49 ± 0.37
YTDNSIRPEELLQMELLLVNKLKW [CCND1]	2.14 ± 0.12	2.37 ± 0.29
QSPVSPQPPAITQVHRQGERRREL [SMTNL2]	5.26 ± 0.14	5.12 ± 0.42
VLNTQGQKTSGQHMIQGAGSLEKA [DLC1]	4.19 ± 0.42	4.23 ± 0.33
QLAAVHLSKSRTDYQPTQAGRLMR [RNF180]	3.5 ± 0.18	3.52 ± 0.26
SLGLSHSTDIGALMYPSYTFSGDV [MMP1]	3.15 ± 0.4	3.19 ± 0.46
EDAHLTQYKKEPVTTRQVRTIVEE [KRT17]	5.01 ± 0.37	5.01 ± 0.19
DNEDYPLFRELWRYHFATGVWHQM [KLHDC10]	2 ± 0.76	2.03 ± 0.46
RRNSSSSMSSRLSIYDNVPGSILY [DLC1]	2.75 ± 0.2	2.87 ± 0.45
QSFISWTGDGWEFKLADPDEVARR [ETS2]	3.58 ± 0.1	3.76 ± 0.19
DTERLDDFHLSIHSDMAAIVKAMA [DVL3]	2.36 ± 0.2	2.49 ± 0.25
EPMRDQVARTHLTEDTPKVNADIE [NSDHL]	5.32 ± 0.34	5.56 ± 0.075
RWSPAQEESFRQMVVIHKEIPTGK [ZNF232]	3.87 ± 0.42	3.99 ± 0.17
YPITLYLEKEREKEISDDEAEEEK [HSP90AB1]	5.01 ± 0.39	5.3 ± 0.083

Sequence	protein stability index (treatment: DMSO)	protein stability index (treatment: MLN4924 1 uM, 8 h)
GKNWSKLCKDCQVIDGRNVTVTDV [TPPP]	3.67 ± 0.14	3.92 ± 0.23
QVEGLTVQYLGQAPELLGGAEPGT [ADAMTS4]	4.53 ± 0.51	4.87 ± 0.4
NMLKNIELFDKLSLRFNGRVLFIK [KCTD10]	2.68 ± 0.48	2.43 ± 0.35
EEIVFNLTNNVDLDNTKKKMEIYQ [MNAT1]	4.05 ± 0.39	4.02 ± 0.35
GEEGAPGKWQQQGDLQDTKENREE [CHGB]	5.57 ± 0.31	5.52 ± 0.28
GRSGWPAGGAPGSPIPSPPGPGDD [HES6]	5.2 ± 0.21	5.25 ± 0.093
VSYRGAWWYRNCHYANLNGLYGST [TNXB]	2.49 ± 0.46	2.26 ± 0.86
FERIMKYERLARILLQEIPIRSIS [FBXO39]	2.73 ± 0.39	2.35 ± 0.4
LCCEWLRPEKHTKEQILEFLVLEQ [ZNF232]	2.23 ± 0.31	2.24 ± 0.27
FHGKYSTINPLWHIRHLGWNPDAR [GLT8D2]	2.57 ± 0.39	2.31 ± 0.21
KIQLRLAGQKRKHSEGRVEVYYDG [LOXL2]	3.09 ± 0.33	3.88 ± 0.67
SPSYGRSRSRSRSRSRSRSRSNSR [SRSF1]	5.39 ± 0.47	5.43 ± 0.26
LSEDDKLQGAASHVPEGFDPTGPA [EHMT1]	5.333 ± 0.053	5.4 ± 0.073
LQDLQVTDILPQMITLSEAYIQIW [USP39]	2.58 ± 0.54	2.55 ± 0.77
ENEEMEQPMQNGEEDRPLGGGEGH [BEX3]	5.42 ± 0.15	5.41 ± 0.2
FPWIDAIMTQLRQEGWIHHLARHA [CRY1]	2.5 ± 0.46	2.96 ± 0.8
ACRFTKCLRVGMLKEGVRLDRVRG [ESRRA]	2.31 ± 0.17	2.25 ± 0.19
RSVQNFRFFASSSLHHTSECTQMD [ALDH8A1]	3.14 ± 0.24	3.29 ± 0.33
KAKPEPDILEEEKIYAYPSNITSE [TMEM192]	4.82 ± 0.2	4.83 ± 0.2
TTPIEEVKGLFKSENCPKVISCEF [LARP4]	2.9 ± 0.2	2.82 ± 0.36

Reference: the supplement of paper PMC10567573
